Here are results for 1 molecule from publication PMC9201380, “Structural Characterization of a Neutralizing Nanobody With Broad Activity Against SARS-CoV-2 Variants” (Frontiers in Microbiology, 2022).

The target of the assay is SARS-CoV-2 S receptor-binding domain (residues 330-531), Avi-tagged and biotinylated (SARS-CoV-2, UniProt P0DTC2). In words: BLI; Octet RED96; biotinylated RBD (2 μg mL^-1) immobilized on SA sensor; DL28 as analyte at 2, 5, 10 and 20 nM; 30°C; 1x PBS, 0.05% Tween 20; association 360 s, dissociation 600 s; 1:1 fit. Particulars: both partners purified. On the technique in general: BLI is a label-free optical method that tracks binding on a fibre tip over time.

B1: DL28 (monovalent nanobody) (VHH)
VHH: QVQLQESGGGLVQAGGSLRLSCAASGSDFSSSTMGWYRQAPGKQREFVAISSEGSTSYAGSVKGRFTISRDNAKNTVYLQMNSLEPEDTAVYYCNVVDRWYDYWGQGTQVTVSA
notes: also called monovalent DL28
For orientation: Kd means the equilibrium constant for the complex coming apart. Read a high Kd as weaker binding. As to B1, the dissociation constant (Kd) is 1.56 nM.
